Test results: patent publication US20130122545A1

T1: Glt-AAF-MCA
T1 chain: AAF

T2: Boc-FSR-MCA
T2 chain: FSR

T3: Suc-LLVY-MCA
T3 chain: LLVY

T4: Z-LLE-MCA
T4 chain: LLE

T5: Suc(OMe)-AAPV-MCA
T5 chain: AAPV


How the values were obtained:
[1] = biological target: Aspergillus niger 19 kDa protease (Aspergillus niger); experiment: cell-based or functional assay
[2] = biological target: T1, Glt-AAF-MCA
[3] = biological target: T2, Boc-FSR-MCA
[4] = biological target: T3, Suc-LLVY-MCA
[5] = biological target: T4, Z-LLE-MCA
[6] = biological target: T5, Suc(OMe)-AAPV-MCA

| Molecule | residual activity (%) [1] | substrate specificity: increase of fluorescent strength, relative (column has no head) [2] | substrate specificity: increase of fluorescent strength, relative (column has no head) [3] | substrate specificity: increase of fluorescent strength, relative (column has no head) [4] | substrate specificity: increase of fluorescent strength, relative (column has no head) [5] | substrate specificity: increase of fluorescent strength, relative (column has no head) [6] |
| --- | --- | --- | --- | --- | --- | --- |
| leupeptin (peptide) | 89% | – | – | – | – | – |
| pepstatin A (peptide) | 91% | – | – | – | – | – |
| Aspergillus niger 19 kDa protease (protein) SPIPSYSRPGRGQHFQDAYGFAEACIAGDRMEIAGQTGMSPTSTEVPPTLEEEVAQAFNNINEVILYTLEKAKPDLRASVKSGWDRVVKIRTYHVQLPQTREKIIGLMVENVKKWCPDHQPTWTMLGIEALPFEGQNLEIEVDVFLG | – | 1.6% | 0.3% | 100.0% | 0.1% | 0.2% |
